This passage reports Ka, koff and kon results from patent publication US20100287629A1.

For assay [1], the target named is recombinant soluble human CD4 (human) (UniProt P01730). Put plainly: BIAcore; rCD4 coupled to chip, mAb flowed. In general terms: SPR reads the build-up and loss of mass on a sensor chip optically.
For assay [2] the target is unchanged. The assay is described as follows: SPR sensor chip; sCD4 amine-coupled, mAb flowed.

By koff is commonly meant the first-order rate constant of dissociation. In general, kon refers to the second-order rate constant of association.

For “Leu3a, mouse anti-human CD4 monoclonal antibody”, in assay [1], the Ka came out at 3.7e+10 M⁻¹, the koff amounted to 4.2e-06 s⁻¹ and the kon was found to be 150000 M⁻¹ s⁻¹. Besides, in assay [2], the Ka was determined as 3.7e+10 M⁻¹, the koff amounted to 4.2e-06 s⁻¹ and the kon is 150000 M⁻¹ s⁻¹.
